Test results reported in the RNAGym collection of RNA variant scans (doi:10.7554/elife.80360).

B1: HDV Ribozyme (parent)
chain: GGCCGGCAUGGUCCCAGCCUCCUCGCUGGCGCCGGCUGGGCAACAUUCCGAGGGGACCGUCCCCUCGGUAAUGGCGAAUGGGACCCA

Variants of: B1
Test: self-cleavage, relative activity (ratio to wild type); higher = more cleavage; co-transcriptional

First: GGCCGGCAUGGUCCCAGCCUCCUCGCUGGCGCCGGCUGGGCAAGAUUCCGAGGGGACCGUCCCCUCGGUAAUGGCGAAUAGGACCCA [C44G G80A]
Second: GGCCGGCACGGUCCCAGCCUCCUCGCUGGCGCCGGCUGGGCAAGAUUCCGAGGGGACCGUCCCCUCGGUAAUGGCGAAUGGGACCCA [U9C C44G]
The self-cleavage of the first is lower: 0.223 for the first, 0.63 for the second.

Compared with GGCCGCCAUGGUCCCAGCCUCCUCGCUGGCGCCGGCUGGGCAACACUCCGAGGGGACCGUCCCCUCGGUAAUGGCGAAUGGGACCCA [G6C U46C], GGCCGGCAUGGUCCCAGCCUCCUCGCUGGCGCCGGCUGGGCAACAUUCCAAGGGGACCGUCCCCUCCGUAAUGGCGAAUGGGACCCA [G50A G67C] is higher in self-cleavage: 0.145 for the first, 0.869 for the second.

First: GGCCGGCAUGGUCCCAGCCUCCUCGCUGGCGGCGGCUGGGCAACAUUCCGAGGGGACCCUCCCCUCGGUAAUGGCGAAUGGGACCCA [C32G G59C]
Second: GGCCGGCCUGGUCCCAGCCUCCUCGCUGGCGCCGGCUGGGCAACAUUCCGAGGGGACCGUCCCCUCGGUAAGGGCGAAUGGGACCCA [A8C U72G]
The self-cleavage of the first is lower: 0.0923 for the first, 0.332 for the second.

Going from GGCCGGCAUGGUCCCAGCCUCCUCGCUGGCGCCGGCUGGGCAACAUUCCGAGGGGAUCGUCCCCUCGGUAACGGCGAAUGGGACCCA [C57U U72C] to GGCCGGCAUGGUCCCAGCCUCCUCGCUGGCGCCGGCUGGCCAACAUUCCGAGGGGACCGUCCCCUCGGUAAUGCCGAAUGGGACCCA [G40C G74C], the self-cleavage falls from 0.566 to 0.0652.

Going from GGCCGGCAUGGUCCCAGCCUCCUCGGUGGCGCCGGCUGGGCGACAUUCCGAGGGGACCGUCCCCUCGGUAAUGGCGAAUGGGACCCA [C26G A42G] to GGCCGGCAUGGUCCCAGCCUCCUCGCUGGCGCCGGCUGGGCAACAUUCCGAGGAGACCGUCCCCUCGGUAAUGGCCAAUGGGACCCA [G54A G76C], the self-cleavage rises from 0.639 to 1.04.

Going from GGCCGGCAUGGUCCCAGCCUCCUCGCUGGCCCCGGCUGGGCAACAUUCCGAGGGGACCGUCCCCUCGGUAAUGGCGAACGGGACCCA [G31C U79C] to GGCCGGCAUGGUCCCAGCCUCCUCGCUGGCGCCGGCUGGGCAACAUUCCGAGGGGACCGUCCCCUCGGUAAUGGCGAAUGGUACCCA [G82U], the self-cleavage rises from 0.282 to 0.41.

First: GGCCGGCAUGGUCCCAGCCUCCUCGCUGGCGCCGGCUGGGCAACAUUCCGCGGGGACCGUCCCCUCGGUAAUGGCGAAUGGGACCCG [A51C A87G]
Second: CGCCGGCAUGGUCCCAGCCUCCUCGCUGGCGCCGGCUGGGCAACAUUCCGAGGGGAACGUCCCCUCGGUAAUGGCGAAUGGGACCCA [G1C C57A]
The self-cleavage of the first is higher: 0.862 for the first, 0.284 for the second.

First: GGCCGGCGUGGUCCCAGCCUCCUCGCUGGCGCCGGCUUGGCAACAUUCCGAGGGGACCGUCCCCUCGGUAAUGGCGAAUGGGACCCA [A8G G38U]
Second: GGCCGGCAUGGUCCAAGCCUCCUCGCUGGCGCCGACUGGGCAACAUUCCGAGGGGACCGUCCCCUCGGUAAUGGCGAAUGGGACCCA [C15A G35A]
The self-cleavage of the first is lower: 0.0405 for the first, 0.405 for the second.

Compared with GGCCGGCAUGGCCCCAGCCUCCUCGCUGGCGCCGGGUGGGCAACAUUCCGAGGGGACCGUCCCCUCGGUAAUGGCGAAUGGGACCCA [U12C C36G], GGCCGGCAUGGUCUCAGCCUCCUCGCUGGCGCCGGCUGGGCAACAGUCCGAGGGGACCGUCCCCUCGGUAAUGGCGAAUGGGACCCA [C14U U46G] is higher in self-cleavage: 0.128 for the first, 0.875 for the second.

First: GGCCGGCACGGUCCCAGCCUCCUCGCUGGCGCCGGCUGGGCAACAUUCCGAGGGGACCGUCCCCUCGGUAAUUGCGAAUGGGACCCA [U9C G73U]
Second: GGCCGGCAUGGUCCCAGCCUCCUCGCUGGCGCCGGCUGGGCAACAUUCCGUGGGGACCGUCCCCUCGGUAAAGGCGAAUGGGACCCA [A51U U72A]
The self-cleavage of the first is lower: 0.383 for the first, 0.628 for the second.

First: GGCCGGCAGGGUCCCAGCCUCCUCGCUGGCGCCGCCUGGGCAACAUUCCGAGGGGACCGUCCCCUCGGUAAUGGCGAAUGGGACCCA [U9G G35C]
Second: GGCCGGCAUGGUCCCAGCCUCCUCGCCGCCGCCGGCUGGGCAACAUUCCGAGGGGACCGUCCCCUCGGUAAUGGCGAAUGGGACCCA [U27C G29C]
The self-cleavage of the first is lower: 0.0639 for the first, 0.107 for the second.

Going from GGCCGGCAUGGUCCCAGCCUCCUCGCUGGCGCCGGCUGGGCAACAUUCCGAGGGGAACGUCCCCUCGGUAAUGGCGUAUGGGACCCA [C57A A77U] to GGCCGGCAUGGUCCCAGCCUCCUCUCUGGGGCCGGCUGGGCAACAUUCCGAGGGGACCGUCCCCUCGGUAAUGGCGAAUGGGACCCA [G25U C30G], the self-cleavage falls from 0.486 to 0.148.

Going from GGCCGGCAUGGUCCCAGCCUCCUCGCUGGCGCCGGCUGGGCAACAUACCGAGGGGACCGUCCCCUCGGUAAUGGCGCAUGGGACCCA [U47A A77C] to GGCCGGCUUGGUCCCGGCCUCCUCGCUGGCGCCGGCUGGGCAACAUUCCGAGGGGACCGUCCCCUCGGUAAUGGCGAAUGGGACCCA [A8U A16G], the self-cleavage rises from 0 to 0.684.

First: GGCCGGCAUGGUCCCAGCCUCCUCGCUGGCGCCGGCUGGGCAACAUUCCGAGGCGACUGUCCCCUCGGUAAUGGCGAAUGGGACCCA [G54C C58U]
Second: GGCCGGCAUGGUCCCAGCCUCUUCGCUGGCGCCGGCUGGGCAACAUUCCGAGGGGACCGUCCCCUCGGUAAUGGCGAAUGGGCCCCA [C22U A83C]
The self-cleavage of the first is higher: 1.11 for the first, 0.298 for the second.

Going from GGCCGGCAUGGUCCCAGCCUCCUCGCUGGCGCCGGCUGGGCAACAUUCCGAGCGGACCGUCCCCUCGGUAAUGGCGAAUGGGACUCA [G53C C85U] to GGCCGGCAUGGUCCCAGCCUCCUCGCUGGCGCCGGCUGGGCAACAUUCCGAGGGGACGGUCCCCUCGGUAAUGGCGAAUGGGACUCA [C58G C85U], the self-cleavage rises from 0.808 to 0.956.

First: GGCCGGCAUGGUCCCAGCCUCCUCGCUGGCGCCGGCUGGGCAACAUUCCGAUGAGACCGUCCCCUCGGUAAUGGCGAAUGGGACCCA [G52U G54A]
Second: GGCCGGCAUGGUCCCAGCCUCCUCGCUGGCGCUGGCUGGGCAACAUUCCGAGGGGACCGUCCCCUCGGUAAUGGCGAAUGGGACCCG [C33U A87G]
The self-cleavage of the first is lower: 0.653 for the first, 0.79 for the second.
